The values that follow are results of earlier work, collected in paper PMC4776139, “Extended string-like binding of the phosphorylated HP1α N-terminal tail to the lysine 9-methylated histone H3 tail” (Scientific Reports, 2016).

This data set deals with H3K9me. The note with it: effect of N-terminal tail phosphorylation. The text has this: In mice there are three HP1 isoforms, HP1α, HP1β and HP1γ with highly conserved CDs that are thought to share a similar structural feature to interact with H3K9me. By contrast, the CDs of these isoforms are connected to a less-conserved N-terminal tail, which is hypothesized to contribute to their isoform-specific function. In HP1α, in particular, there are four successive serine residues in the N-terminal tail that are constitutively phosphorylated in vivo[13]. […] Howeve ...

B1: HP1α: mouse heterochromatin protein 1 isoform; chromodomain with N-terminal tail (protein, UniProt Q61686 1-191, looked up)
Chromobox protein homolog 5: MGKKTKRTADSSSSEDEEEYVVEKVLDRRMVKGQVEYLLKWKGFSEEHNTWEPEKNLDCPELISEFMKKYKKMKEGENNKPREKSEGNKRKSSFSNSADDIKSKKKREQSNDIARGFERGLEPEKIIGATDSCGDLMFLMKWKDTDEADLVLAKEANVKCPQIVIAFYEERLTWHAYPEDAENKEKESAKS
On to B1, for which the “affinity for H3K9me, in words” value is given as “its affinity becomes much stronger when the N-terminal tail is phosphorylated”.
